Measured values published in patent publication US10865391B2, “Glutamate dehydrogenase mutants and their application in preparation of L-phosphinothricin” (ZHEJIANG UNIVERSITY, priority 2018, dated 2020).
Changes are numbered by the printed parent chain. Names and notes keep the numbering of the source.

B1: LsGluDHp-A175G: LsGluDHp mutant A175G, SEQ ID NO. 7 (protein)
chain: MTITTVSNEQLAKEYVDGVFEQLKQQNCHQAEFLQAAEEIFISLVPVFVQHPEYIKANILSRIVEPDRIISFRVAWQDDHNQVQVNRGYRVQYSNVMGPYKGGLRFHPSVNESIIKFLGFEQIFKNALTGQPIGGGKGGSNFDPKGKSDSEIMRFCQAFMTELYRHIGPDVDVPGGDIGVGAREVGYLWGQYKRLTKASESGVLTGKTPGYGGSLARKEATGYGTVYFVNEMLKDVNDSFEGKTVVVSGSGNVSTYAIEKAQQYGAKVVACSDSSGYIYDPEGLDLDVIKEIKEVKGDRISTYVSYRPNATFTNGCTGIWTIPCDIALPCATQNEINGESARTLISNGVKAIGEGANMPSDLEAINEFLNAGVLFGPAKAANAGGVAVSALEMAQDSSRVFWSFEEVDAKLHQIMKDIYSDSKAAAEKYGFPGNLVMGANIAGFIKVADGMLTEGIY
modifications: Lysinibacillus sphaericus glutamate dehydrogenase mutant
B2: PpGluDH-A167G: PpGluDH mutant, alanine 167 to glycine, SEQ ID NO. 1 (protein)
chain: MSTMIESVDNFLARLKQRDPGQPEFHQAVEEVLRTLWPFLEANPHYLQSGILERMVEPERAVLFRVSWVDDQGKVQVNRGYRIQMSSAIGPYKGGLRFHPSVNLSVLKFLAFEQVFKNSLTSLPMGGGKGGSDFDPKGKSDAEVMRFCQAFMSELYRHIGADCDVPGGDIGVGAREIGFMFGQYKRLANQFTSVLTGKGMTYGGSLIRPEATGYGCVYFAEEMLKRQDKRIDGRRVAVSGSGNVAQYAARKVMDLGGKVISLSDSEGTLYAEAGLTDAQWDALMELKNVKRGRISELAGQFGLEFRKGQTPWSLPCDIALPCATQNELGAEDARTLLRNGCICVAEGANMPTTLEAVDIFLDAGILYAPGKASNAGGVAVSGLEMSQNAMRLLWTAGEVDSKLHNIMQSIHHACVHYGEEADGRINYVKGANIAGFVKVADAMLAQGVV
modifications: Pseudomonas putida glutamate dehydrogenase mutant
B3: PpGluDH-V378A: PpGluDH mutant, valine 378 to alanine, SEQ ID NO. 2 (protein)
chain: B2 chain with G167A, V378A
modifications: Pseudomonas putida glutamate dehydrogenase mutant

Columns and labels:
Assay type in all cases: biochemical
[1] = Standard enzyme activity measurement toward PPO, crude enzyme (per volume fermentation broth); conditions: for Enzyme activity (per volume fermentation broth): 100 mM substrate, 10 mM coenzyme, 500 mM NH4+, pH 7.5, 35° C., 10 min; for Enzyme activity (per volume fermentation broth), times higher than that of wild type: versus wild type PpGluDH
Procedure: The preserved recombinant E. coli is streaked onto the plate for activation. Single colonies are picked and inoculated into 5 mL LB liquid medium containing 50 μg/mL kanamycin and cultured at 37° C. for 12 h. The culture is transferred to 50 mL fresh LB liquid medium containing 50 μg/mL kanamycin at a 2% inoculum, and then incubated at 37° C. until the OD600 reaches 0.6; after that, add IPTG to a final concentration of 0.5 mM, and then proceed with induction culture under the temperature of 18° C. for 16 h.
After the cultivation, the culture is centrifuged at 10000 rpm for 10 min; discard supernatant, and collect cells. The harvested cells are washed for 2 times using pH 7.5 50 mM phosphate buffer. After that, the cells are re-suspend into the pH 7.5 phosphate buffer and disrupted ultrasonically (400W for 30 times, Ultrasonic time is 3 s, and the interval is 7 s). The cell disrupted solution is centrifuged at 12000 g for 5 min at 4° C. to remove the precipitate, and the supernatant obtained is the crude enzyme containing recombinant glutamate dehydrogenase
(§1) The standard enzyme activity measurement system: Appropriate amount of enzyme, 100 mM substrate, 10 mM coenzyme (NADH or NADPH), 500 mM NH4^+ ((NH4)2SO4); total system volume is up to 400 μL; reaction medium is pH 7.5 phosphate buffer. 35° C. reaction for 10 min; after that, add 40 uL 5 M NaOH to terminate reaction.
(§2) Definition of enzyme activity unit: The quantity of enzyme as required by generation of 1 μmol L-phosphinothricin per minute under standard reaction conditions.
Proceed with induction culture of constructed mutants, and prepare crude enzyme solution.

[2] = Preparation of L-phosphinothricin by coupling glutamate dehydrogenase with alcohol dehydrogenase; conditions: 500 mM PPO, 750 mM isopropanol, TBADH, NADP+, GluDH cells 0.5 g/L, 35° C., pH 7.5, 12 h
Procedure: (§3) The reaction process is monitored by measuring the concentration of substrate in the reaction solution applying high-performance liquid chromatography (HPLC). HPLC analysis method is stated as follows: column model: Pntulips® QS-C18, 5 μm, 4.6 mm×250 mm. Mobile phase: 50 mM (NH4)2HPO4, added 1% of 10% tetrabutyl ammonium hydroxide, adjusted to pH 3.6 with 50% phosphoric acid(mass fraction), added 8% acetonitrile. Detective wave length is 205 nm; flow rate is 1.0 mL/min. Column temperature is 40° C.
(§4) The enantiomeric excess and concentration of product are determined through pre-column derivatization high-performance liquid chromatography; the specific analysis method is stated as follows:
(§5) (1) HPLC condition: column model: Pntulips® QS-C18, 5 μm, 4.6 mm×250 mm. Mobile phase: 50 mM Sodium acetate: Acetonitrile=8: 0.5 (v/v). Detective wave length: 338 nm. Flow rate: 0.85 mL/min. Column temperature: 30° C.
(§6) (2) Derivatization reagent: Weigh 0.03 g phthalaldehyde and 0.1 g N-acetyl-L-cysteine, and use 400 uL ethanol for solubilization; after that, add 4 mL 0.2 mol/L borate buffer (pH 9.8) and shake for dissolution prior to storage in the fridge under the temperature of 4° C. (no more than 4 days).
(§7) (3) Derivatization reaction and analysis: Add 150 μL derivatization reagent into 100 μL sample, mix and incubate at 25° C. for 5 min, and then inject 20 μL for analysis.
Culture recombinant E. coli expressing glutamate dehydrogenase (LsGluDHp-A175G, SEQ ID NO. 7) and alcohol dehydrogenase (TBADH, WP_041589967.1) with method in Step 3 of Embodiment 1; proceed with centrifugal collection of cells and ultrasonic cell disruption to prepare crude enzyme solution.
(§8) The final volume of the reaction is 30 mL; each sample contains 500 mM substrate PPO, 750 mM isopropanol, 250 mM (NH4)2SO4 and 0.5 mM NADP^+. Concentration of glutamate dehydrogenase cells (dry weight) is 0.5 g/L; concentration of alcohol dehydrogenase cells (dry weight) is 2.5 g/L. Use water bath to control the reaction temperature at 35° C.; titrate ammonia to control pH at 7.5 during the reaction process. […]

[3] = Preparation of L-phosphinothricin by coupling glutamate dehydrogenase with glucose dehydrogenase; conditions: 500 mM PPO, NADP+, 35° C., pH 7.5, 6 h
Procedure: as §3, §4, §5, §6, §7
Culture recombinant E. coli expressing glutamate dehydrogenase (PpGluDH) and glucose dehydrogenase (BsGDH-2M, SEQ ID NO. 21) with method in Step 3 of Embodiment 1; proceed with centrifugal collection of cells and ultrasonic cell disruption to prepare crude enzyme solution.
(§9) The final volume of the reaction is 30 mL; each sample contains 500 mM substrate PPO, 600 mM glucose, 250 mM (NH4)2SO4 and 0.5 mM NADP^+. Concentration of glutamate dehydrogenase cells (dry weight) is 1.0 g/L; concentration of glucose dehydrogenase cells (dry weight) is 1.25 g/L. Use water bath to control the reaction temperature at 35° C.; titrate ammonia to control pH at 7.5 during the reaction process. Use non-chiral HPLC to determine residual concentration of PPO after reaction for 6 h; meanwhile, use pre-column derivatization HPLC to determine the concentration and ee value of formed L-phosphinothricin.
as §9, with “0.5” for “1.0”
as §9, with “NAD^+.” for “NADP^+.”, “1.25” for “1.0”
as §8, with “PPO, 600” for “PPO, 750”, “mM glucose,” for “mM isopropanol,”, “mM NAD^+.” for “mM NADP^+.”, “is 1.25” for “is 0.5”, “of glucose” for “of alcohol”, “is 1.25” for “is 2.5”

[4] = Specific activity of pure enzyme toward PPO; conditions: for Specific activity of pure enzyme: purified protein; for Specific activity, times higher than that of wild type: versus wild type PpGluDH
Procedure: The recombinant E. coli carrying glutamate dehydrogenase gene used in the present invention is constructed and kept by our laboratory. The vector used is pET-28a(+), and the host used is E. coli BL21(DE3). NI-NTA resin (HisPur™ Ni-NTA Resin) used for protein purification is purchased from Thermo Scientific™; protein purification is carried out in reference to specifications.
as §1, §2
Meanwhile, specific activity of pure enzyme obtained through purification has also been measured. As measured, specific activity of pure protein of wild type PpGluDH is 0.31 U/mg; specific activity of PpGluDH-A167G is 38.13 U/mg, which is 123 times higher than that of wild type; specific activity of PpGluDH-V378A is 35.96 U/mg, which is 116 times higher than that of wild type.

Row | Molecule | Fold change [1] | Enzyme activity of mutants (U/mL) ([1]; toward PPO, crude enzyme, standard system, N.D. = no detectable activity) | concentration of formed L-phosphinothricin [2] | residual PPO [2] | substrate conversion [2] | concentration of formed L-phosphinothricin ([3]; GluDH cells 0.5 g/L) | residual PPO ([3]; GluDH cells 0.5 g/L) | substrate conversion ([3]; GluDH cells 0.5 g/L) | Specific activity of pure enzyme [4] | Specific activity, times higher than that of wild type [4] | Enzyme activity (per volume fermentation broth) ([1]; toward PPO, crude enzyme) | Enzyme activity (per volume fermentation broth), times higher than that of wild type ([1]; toward PPO) | concentration of formed L-phosphinothricin ([3]; GluDH cells 1.0 g/L) | residual PPO ([3]; GluDH cells 1.0 g/L) | substrate conversion ([3]; GluDH cells 1.0 g/L)
1 | B1 | 1641 | 34.47 U/mL | 81.3 g/L | 1.3 mM | 99.7% | 82.4 g/L | 0 mM | 100% | – | – | – | – | – | – | –
2 | B2 | – | – | – | – | – | – | – | – | 38.13 U/mg | 123 times | 14.85 U/mL | 135 times | 83.7 g/L | 0.9 mM | 99.8%
3 | B3 | – | – | – | – | – | – | – | – | 35.96 U/mg | 116 times | 13.3 U/mL | 121 times | 81.9 g/L | 1.2 mM | 99.8%
